The test system of assay [1] is MDA-MB-231 cells. The assay is described as follows: Chromosome missegregation in anaphase cells. Format: cell-based, human. The settings on record: overexpression in MDA-MB-231 cells. As for the experimental part: (§1) Primary tumor specimens were analyzed from 60 patients with head and neck squamous cell carcinoma (HNSCC) (Chung et al. Cancer Cell 5, 489-500 (2004)). Forty patients had Hematoxylin and Eosin-stained (H&E) primary tumor samples of sufficient quality for high-resolution microscopy analysis. Analysis was restricted to cells fixed while undergoing anaphase as previously described (Bakhoun et al. Clin. Cancer Res. 17, 7704-7711 (2011); Zaki et al. Cancer 120, 1733-1742 (2014)). Chromosome missegregation was defined by hematoxylin staining presence in between the remaining segregating chromosomes during anaphase and it was reported as the percentage of cells undergoing anaphase with evidence of chromosome missegregation. Clinical lymph node status was defined by clinical examination or radiographic evidence of lymph node tumor involvement (Chung et al. Cancer Cell 5, 489-500 (2004)).
(§2) Cell fixation and antibody staining were performed as described (Bakhoun et al. Nat Commun 6, 5990 (2015)). Briefly, cells were fixed with ice-cold (−30 C) methanol for 15 minutes—when staining for centromeres, centrosomes, cGAS, Vimentin, β-actin, or α-tubulin—or 4% paraformaldehyde—when staining for RelB, p65, IRF3, ssDNA, dsDNA, CoxIV, or β-catenin. Subsequently, cells were permeabilized using 1% triton for 4 minutes. See Table 1 for antibody information.
(§3) To determine whether chromosomal instability is causally involved in metastasis, we devised a genetic approach (Bakhoun et al., Nat. Cell Biol. 11, 27-35 (2009); Bakhoun et al., Nat Commun 6, 5990 (2015)) to alter the rate of chromosome missegregation in transplantable tumor models of human TNBC (MDA-MB-231) and lung adenocarcinoma (H2030). […] These cells, with unperturbed chromosome segregation rates, are referred to a as CIN-medium cells. […] As an important control, Kif2a was overexpressed, Kif2a is a third member of the microtubule-depolymerizing kinesin-13 proteins that lacks any kinetochore or centromere localization domains (Ems-McClung et al. Semin. Cell Dev. Biol. 21, 276-282 (2010)).

For another assay, the system named is H2030 cells. The assay is described as follows: Chromosome missegregation in anaphase cells. The format is cell-based, human. The settings on record: overexpression in H2030 cells. As for the experimental part: as §1, §2, §3
In assay [2] the test system is MDA-MB-231 cells. In words: Intracardiac injection metastasis model, bioluminescence imaging and disease-specific survival. The format is in vivo, mice. The settings on record: intracardiac injection of MDA-MB-231 cells expressing the protein, FIG. 2E. As for the experimental part: Animal experiments were performed in accordance with protocols approved by the Weill Cornell Medicine Institutional Animal Care and Use Committee. […] There was no need to randomize animals. Investigators were not blinded to group allocation. Intracardiac injection was performed as previously described (Chen et al. Nature 533, 493-498 (2016)). Briefly, cells were trypsinized and washed with PBS and a 1×10^5 cells (in 100 μl of PBS) were injected into the left cardiac ventricle of female athymic 6-7-week-old athymic nude (nu/nu) mice (Jackson Laboratory strain 002019). Mice were then immediately injected with D-luciferin (150 mgkg^−1) and subjected to bioluminescence imaging (BLI) using tan IVIS Spectrum Xenogen instrument (Caliper Life Sciences) to ensure systemic dissemination of tumor cells. Metastatic burden was measured at week 5 after injection using BLI and in the case of MDA-MB-231 mice BLI images were taken every 1-2 weeks for up to 17 weeks. BLI images were analyzed using Living Image Software v.2.50. Disease-specific survival endpoint was met when the mice died or met the criteria for euthanasia under the IACUC protocol and had radiographic evidence of metastatic disease. For Orthotopic tumor implantation, 2.5×10^5 cells in 50p of PBS were mixed 1:1 with Matrigel (BD Biosciences) and injected into the fourth mammary fat pad. Only one tumor was implanted per animal. Primary tumors were surgically excited when they reached ˜1.5 cm in the largest dimension and metastatic dissemination was assessed using BLI imaging at 1-week to 3-week intervals for up to 30 weeks. Distant metastasis-free survival endpoint was met when BLI signal was seen outside of site of primary tumor transplantation. To derive short-term culture from primary tumors and metastases, anesthetized animals (isofluorane) were imaged then sacrificed. Ex-vivo BLI was subsequently performed on harvested organs to define the precise location of the metastatic lesion. Primary tumors and metastases were subsequently mechanically dissociated and cultured in DMEM with selection media to select for tumor cells. […]

The next assay concerns cytosolic DNA. The assay is described as follows: Cytosolic dsDNA and ssDNA staining after selective plasma membrane permeabilization. The format is cell-based, human. The settings on record: after overexpression of Dnase2. As for the experimental part:
as §2
For selective plasma membrane permeabilization used for cytosolic dsDNA and ssDNA staining, cells were treated with 0.02% saponin for 5 minutes after fixation. For single-stranded (Thermo Fisher FEREN0321) and double stranded (Life Technologies—EN0771)-specific nuclease treatment, cells were also permeabilized with 0.02% saponin for 2 minutes and treated with either nucleases for 10 minutes before fixation using 4% paraformaldehyde. TBS-BSA was used as a blocking agent during antibody staining. DAPI was added together with secondary antibodies. Cells were mounted with Prolong Diamond Antifade Mountant (Life Technologies—P36961).

The subject of a further assay is cGAS. In words: cGAS localization to micronuclei by immunofluorescence. Format: cell-based, human. The settings on record: Lamin B2 overexpression in dnMCAK cells. As for the experimental part:
as §2

The text below walks through data of US11821042B2, “Targeting chromosomal instability and downstream cytosolic DNA signaling for cancer treatment” (Cornell University, priority 2017, dated 2023).

B1: Kif2a: third microtubule-depolymerizing kinesin-13 protein lacking kinetochore or centromere localization domains; control (protein, UniProt O00139 1-706, looked up)
Kinesin-like protein KIF2A: MATANFGKIQIGIYVEIKRSDGRIHQAMVTSLNEDNESVTVEWIENGDTKGKEIDLESIFSLNPDLVPDEEIEPSPETPPPPASSAKVNKIVKNRRTVASIKNDPPSRDNRVVGSARARPSQFPEQSSSAQQNGSVSDISPVQAAKKEFGPPSRRKSNCVKEVEKLQEKREKRRLQQQELREKRAQDVDATNPNYEIMCMIRDFRGSLDYRPLTTADPIDEHRICVCVRKRPLNKKETQMKDLDVITIPSKDVVMVHEPKQKVDLTRYLENQTFRFDYAFDDSAPNEMVYRFTARPLVETIFERGMATCFAYGQTGSGKTHTMGGDFSGKNQDCSKGIYALAARDVFLMLKKPNYKKLELQVYATFFEIYSGKVFDLLNRKTKLRVLEDGKQQVQVVGLQEREVKCVEDVLKLIDIGNSCRTSGQTSANAHSSRSHAVFQIILRRKGKLHGKFSLIDLAGNERGADTSSADRQTRLEGAEINKSLLALKECIRALGRNKPHTPFRASKLTQVLRDSFIGENSRTCMIATISPGMASCENTLNTLRYANRVKELTVDPTAAGDVRPIMHHPPNQIDDLETQWGVGSSPQRDDLKLLCEQNEEEVSPQLFTFHEAVSQMVEMEEQVVEDHRAVFQESIRWLEDEKALLEMTEEVDYDVDSYATQLEAILEQKIDILTELRDKVKSFRAALQEEEQASKQINPKRPRAL
As for B1, the “chromosome segregation errors during anaphase” value in the assay on MDA-MB-231 cells [1] and with H2030 cells was “no effect” throughout. The “disease-specific survival of mice” value with MDA-MB-231 cells [2] is “middle levels of survival”.

B2: Dnase2: Dnase2 overexpressed using a pLenti-GIII-CMV-RFP-2A-Puro plasmid (protein, UniProt O00115 19-360, looked up)
Deoxyribonuclease-2-alpha: CYGDSGQPVDWFVVYKLPALRGSGEAAQRGLQYKYLDESSGGWRDGRALINSPEGAVGRSLQPLYRSNTSQLAFLLYNDQPPQPSKAQDSSMRGHTKGVLLLDHDGGFWLVHSVPNFPPPASSAAYSWPHSACTYGQTLLCVSFPFAQFSKMGKQLTYTYPWVYNYQLEGIFAQEFPDLENVVKGHHVSQEPWNSSITLTSQAGAVFQSFAKFSKFGDDLYSGWLAAALGTNLQVQFWHKTVGILPSNCSDIWQVLNVNQIAFPGPAGPSFNSTEDHSKWCVSPKGPWTCVGDMNRNQGEEQRGGGTLCAQLPALWKAFQPLVKNYQPCNGMARKPSRAYKI
For B2, in the assay on cytosolic DNA, the “cytosolic dsDNA staining signal” value was “disappeared”.

B3: Kif2b: kinesin-13 protein, human sequence SEQ ID NO:1, overexpressed in tumor cells (protein, listed as Homo sapiens)
chain: MASQFCLPESPCLSPLKPLKPHFGDIQEGIYVAIQRSDKRIHLAVVTEINRENYWVTVEWVEKAVKKGKKIDLETILLLNPALDSAEHPMPPPPLSPLALAPSSAIRDQRTATKWVAMIPQKNQTASGDSLDVRVPSKPCLMKQKKSPCLWEIQKLQEQREKRRRLQQEIRARRALDVNTRNPNYEIMHMIEEYRRHLDSSKISVLEPPQEHRICVCVRKRPLNQRETTLKDLDIITVPSDNVVMVHESKQKVDLTRYLQNQTFCFDHAFDDKASNELVYQFTAQPLVESIFRKGMATCFAYGQTGSGKTYTMGGDFSGTAQDCSKGIYALVAQDVFLLLRNSTYEKLDLKVYGTFFEIYGGKVYDLLNWKKKLQVLEDGNQQIQVVGLQEKEVCCVEEVLNLVEIGNSCRTSRQTPVNAHSSRSHAVFQIILKSGRIMHGKFSLVDLAGNERGADTTKASRKRQLEGAEINKSLLALKECILALGQNKPHTPFRASKLTLVLRDSFIGQNSSTCMIATISPGMTSCENTLNTLRYANRVKKLNVDVRPYHRGHYPIGHEAPRMLKSHIGNSEMSLQRDEFIKIPYVQSEEQKEIEEVETLPTLLGKDTTISGKGSSQWLENIQERAGGVHHDIDFCIARSLSILEQKIDALTEIQKKLKLLLADLHVKSKVE
As for B3, the “chromosome segregation errors during anaphase” value in the assay on MDA-MB-231 cells [1] and with H2030 cells was “significant suppression” in each case. Also, in the assay with MDA-MB-231 cells [2], the “disease-specific survival of mice” value is “most survival”.

B4: MCAK/Kif2c: kinesin-13 protein, human sequence SEQ ID NO:3 or 7, overexpressed in tumor cells (protein, listed as Homo sapiens)
chain: MAMDSSLQARLFPGLAIKIQRSNGLIHSANVRTVNLEKSCVSVEWAEGGATKGKEIDFDDVAAINPELLQLLPLHPKDNLPLQENVTIQKQKRRSVNSKIPAPKESLRSRSTRMSTVSELRITAQENDMEVELPAAANSRKQFSVPPAPTRPSCPAVAEIPLRMVSEEMEEQVHSIRGSSSANPVNSVRRKSCLVKEVEKMKNKREEKKAQNSEMRMKRAQEYDSSFPNWEFARMIKEFRATLECHPLTMTDPIEEHRICVCVRKRPLNKQELAKKEIDVISIPSKCLLLVHEPKLKVDLTKYLENQAFCFDFAFDETASNEVVYRFTARPLVQTIFEGGKATCFAYGQTGSGKTHTMGGDLSGKAQNASKGIYAMASRDVFLLKNQPCYRKLGLEVYVTFFEIYNGKLFDLLNKKAKLRVLEDGKQQVQVVGLQEHLVNSADDVIKMLDMGSACRTSGQTFANSNSSRSHACFQIILRAKGRMHGKFSLVDLAGNERGADTSSADRQTRMEGAEINKSLLALKECIRALGQNKAHTPFRESKLTQVLRDSFIGENSRTCMIATISPGISSCEYTLNTLRYADRVKELSPHSGPSGEQLIQMETEEMEACSNGALIPGNLSKEEEELSSQMSSFNEAMTQIRELEEKAMEELKEIIQQGPDWLELSEMTEQPDYDLETFVNKAESALAQQAKHFSALRDVIKALRLAMQLEEQASRQISSKKRPQ
In the case of B4, the “chromosome segregation errors during anaphase” value with MDA-MB-231 cells [1] and with H2030 cells was “significant suppression” each time. Moreover, the “disease-specific survival of mice” value with MDA-MB-231 cells [2] is “most survival”.

B5: Lamin B2: mCherry-Lamin B2 overexpressed to stabilize micronuclear envelopes (protein, UniProt Q03252 1-617, looked up)
Lamin-B2: MSPPSPGRRREQRRPRAAATMATPLPGRAGGPATPLSPTRLSRLQEKEELRELNDRLAHYIDRVRALELENDRLLLKISEKEEVTTREVSGIKALYESELADARRVLDETARERARLQIEIGKLRAELDEVNKSAKKREGELTVAQGRVKDLESLFHRSEVELAAALSDKRGLESDVAELRAQLAKAEDGHAVAKKQLEKETLMRVDLENRCQSLQEELDFRKSVFEEEVRETRRRHERRLVEVDSSRQQEYDFKMAQALEELRSQHDEQVRLYKLELEQTYQAKLDSAKLSSDQNDKAASAAREELKEARMRLESLSYQLSGLQKQASAAEDRIRELEEAMAGERDKFRKMLDAKEQEMTEMRDVMQQQLAEYQELLDVKLALDMEINAYRKLLEGEEERLKLSPSPSSRVTVSRATSSSSGSLSATGRLGRSKRKRLEVEEPLGSGPSVLGTGTGGSGGFHLAQQASASGSVSIEEIDLEGKFVQLKNNSDKDQSLGNWRIKRQVLEGEEIAYKFTPKYILRAGQMVTVWAAGAGVAHSPPSTLVWKGQSSWGTGESFRTVLVNADGEEVAMRTVKKSSVMRENENGEEEEEEAEFGEEDLFHQQGDPRTTSRGC
modifications: mCherry fusion
notes: mCherry-Lamin B2 overexpressed to stabilize micronuclear envelopes
Regarding B5, the “relative fraction of micronuclei with cGAS staining” value with cGAS is recorded as “significantly diminished”.
